Reference: patent US20220033484A1 (FAPON BIOTECH, published 2022)
Positions count from the first letter of the chain named. One block for each binder: values may come before it.

Key:
[1] = target: T1, cTnI quality control product recombinant protein (human, UniProt P19429 2-210, limits assumed); experiment: sandwich ELISA, antibody 1.372 ng/ml on anti-mouse IgG, cTnI 0.15 ug/ml, HRP second mAb
T1 construct: treated as the same molecule; also called cTnI antigen; cardiac troponin I
Procedure: (§1) After mutation, the antibody activity is detected. 1 μg/ml of goat anti-mouse IgG is diluted with coating solution to coat a microwell plate, 100 μL per well, and overnight at 4 DEG C.; on the next day, it is washed twice with washing solution, and patted dry; blocking solution (20% BSA+80% PBS) is added, 120 μL per well, 37 DEG C., and 1 h, and patted dry; a diluted cTnI monoclonal antibody is added, 100 μL/well, 37 DEG C., and 60 min; liquid in the plate is shaken off, patted dry, and 20% of mouse negative blood is added for blocking, 120 μl per well, 37 DEG C., 1 h; liquid in the plate is shaken off, patted dry, a diluted cTnI antigen (0.15 μg/ml) is added, 100 μL per well, 37 DEG C., and 40 min; it is washed for 5 times with the washing solution, and patted dry; another strain of the cTnI monoclonal antibody (1:5K) labeled with HRP is added, 100 μL per well, 37 DEG C., and 30 min; color developing solution A (50 μL/well) is added, color developing solution B (50 μL/well) is added, 10 min; stop solution is added, 50 μL/well; and a OD value is read at 450 nm (refer to 630 nm) on a microplate reader.

[2] = target: T1, cTnI quality control product …; experiment: sandwich ELISA, antibody 0.457 ng/ml on anti-mouse IgG, cTnI 0.15 ug/ml, HRP second mAb
Procedure: as §1

[3] = target: T1, cTnI quality control product …; experiment: sandwich ELISA, antibody 37.037 ng/ml on anti-mouse IgG, cTnI 0.15 ug/ml, HRP second mAb
Procedure: as §1

[4] = target: T1, cTnI quality control product …; experiment: sandwich ELISA, antibody 4.115 ng/ml on anti-mouse IgG, cTnI 0.15 ug/ml, HRP second mAb
Procedure: as §1

[5] = target: T1, cTnI quality control product …; experiment: sandwich ELISA, antibody 0.000 ng/ml (blank of this series), cTnI 0.15 ug/ml, HRP second mAb
Procedure: as §1

[6] = target: T1, cTnI quality control product …; experiment: AMC sensor, antibody immobilised, cTnI in solution
Procedure: Operating process: it is equilibrated in Buffer 1 (PBST) for 60 s, the antibody is immobilized in an antibody solution for 300 s, incubated in Buffer 2 (PBST) for 180 s, bound in antigen solution for 420 s, dissociated in the Buffer 2 for 1200 s, 10 mM of GLY solution with pH 1.69 and Buffer 3 are used for sensor regeneration, and data is output. KD represents an equilibrium dissociation constant, namely the affinity; Kon represents a binding rate; and Kd is represents a dissociation rate.

[7] = target: T1, cTnI quality control product …; experiment: sandwich ELISA, antibody 12.346 ng/ml on anti-mouse IgG, cTnI 0.15 ug/ml, HRP second mAb
Procedure: as §1

T1 sequence (P19429 2-210 limits assumed): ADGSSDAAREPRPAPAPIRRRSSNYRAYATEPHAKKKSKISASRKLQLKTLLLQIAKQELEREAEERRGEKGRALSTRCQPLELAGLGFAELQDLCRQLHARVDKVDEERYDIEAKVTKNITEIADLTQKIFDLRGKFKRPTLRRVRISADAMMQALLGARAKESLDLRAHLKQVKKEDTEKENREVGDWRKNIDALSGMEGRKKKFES

- OD450 (ref. 630 nm) [1]: 0.612 OD
- OD450 (ref. 630 nm) [2]: 0.365 OD
- OD450 (ref. 630 nm) [3]: 2.16 OD
- OD450 (ref. 630 nm) [4]: 1.19 OD
- OD450 (ref. 630 nm) [5]: 0.13 OD
- Kd [6]: 70.9 nM
- koff [6]: 0.0034 s⁻¹
- kon [6]: 48000 M⁻¹ s⁻¹
- OD450 (ref. 630 nm) [7]: 1.97 OD
B1: Anti-cTnI-21C5 monoclonal antibody (recombinant) (antibody, mouse IgG2b, V domains shown)
VH: EVQLQQSGPELVKPGASVKMSCKASGYSFTLYVVHWVKQKPGQGLEWIGYIQPYLDGTRYNEKFKGKATLTVDKSSSTAFMELSSLTSEDSAVYYCARTGYGGYGLAWLAYWGQGTLVTVSA
VL: QAVVIQESALTTSPGETVTLTCRSSSGAATTSQYANWVQEKPDHLFTGLIGGSNNRAPGVPARFSGSLIGDKAALTITGAQTEDEAIYFCAIVYSNHWVFGGGTKLTVLG
notes: also called WT; Sample 1

- OD450 (ref. 630 nm) [1]: 0.421 OD
- OD450 (ref. 630 nm) [2]: 0.211 OD
- OD450 (ref. 630 nm) [3]: 2.1 OD
- OD450 (ref. 630 nm) [4]: 1.51 OD
- OD450 (ref. 630 nm) [5]: 0.117 OD
- OD450 (ref. 630 nm) [7]: 1.94 OD
B2: Mutation 2 (antibody, V domains shown)
VH: B1 VH with R59K, T99S
VL: B1 VL with S26T, A57V
notes: Built as m3, with this row's residues

- OD450 (ref. 630 nm) [1]: 0.15 OD
- OD450 (ref. 630 nm) [3]: 1.58 OD
- OD450 (ref. 630 nm) [4]: 0.347 OD
- OD450 (ref. 630 nm) [7]: 0.824 OD
B3: Mutation 3 (antibody, V domains shown)
VH: B1 VH with S28T, R59H, T99S
VL: B1 VL with A57I, I92A
notes: as for B2

- OD450 (ref. 630 nm) [1]: 0.94 OD
- OD450 (ref. 630 nm) [2]: 0.524 OD
- OD450 (ref. 630 nm) [3]: 2.33 OD
- OD450 (ref. 630 nm) [4]: 1.89 OD
- OD450 (ref. 630 nm) [5]: 0.114 OD
- Kd [6]: 4.2 nM
- koff [6]: 0.000214 s⁻¹
- kon [6]: 51000 M⁻¹ s⁻¹
- OD450 (ref. 630 nm) [7]: 2.24 OD
B4: Mutation 1 (antibody, V domains shown)
VH: B1 VH with S28T, R59K, T99S
VL: B1 VL with S26T, I92L
notes: CDR mutant of WT
